Measurements from patent US20020086390.

Assays:
[1] = target: GST-Cdc42Hs preloaded with GTPγS, P60953
[2] = target: GST-Rac1 preloaded with GTPγS, P63000
[3] = target: GST-RhoA preloaded with GTPγS, P61586
[4] = target: GST-Cdc42Hs preloaded with GDP, P60953
Sequence of GST-Cdc42Hs preloaded with GDP, P60953 (P60953 whole entry, looked up): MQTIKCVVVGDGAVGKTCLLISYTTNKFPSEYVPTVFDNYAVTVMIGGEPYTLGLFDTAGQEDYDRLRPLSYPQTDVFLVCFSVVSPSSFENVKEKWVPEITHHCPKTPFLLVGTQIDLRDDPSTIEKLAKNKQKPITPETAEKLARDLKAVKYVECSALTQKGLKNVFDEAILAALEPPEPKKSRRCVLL

Sequence of GST-Cdc42Hs preloaded with GTPγS, P60953 (P60953 whole entry, looked up): as above
Sequence of GST-RhoA preloaded with GTPγS, P61586 (P61586 whole entry): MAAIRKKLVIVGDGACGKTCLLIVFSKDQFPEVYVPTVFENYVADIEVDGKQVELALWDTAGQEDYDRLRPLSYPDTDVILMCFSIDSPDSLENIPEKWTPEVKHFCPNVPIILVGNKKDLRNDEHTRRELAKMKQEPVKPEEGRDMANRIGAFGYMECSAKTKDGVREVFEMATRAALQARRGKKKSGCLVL

B1: inactive PAK I holoenzyme (p60) purified from rabbit reticulocytes (protein)
chain: SDNGELEDKPPAPPVRMSSTIFSTGGKDPLSANHSLKPLPSVPEEKKPRNKIISIFSGTEKGSKKKEKERPEISPPSDFEHTIHVGFDAVTGEFTGMPEQWARLLQTSNITKLEQKKNPQAVLDVLKFYDSNTVKQKYLSFTPPEKDGFPSGAPALNTKVSETSAVVTEEDDDDEEAAPPVIAPRPDHTKSIYTRSVIDPIPAPVGDSHVDSGAKSSDKQKKKTKMTDEEIMEKLRTIVSIGDPKKKYTRYEKIGQGASGTVFTATDVALGQEVAIKQINLQKQPKKELIINEILVMKELKNPNIVNFLDSYLVGDELFVVMEYLAGGSLTDVVTETCMDEAQIAAVCRECLQALEFLHANQVIHRDIKSDNVLLGMEGSVKLTDFGFCAQITPEQSKRSTMVGTPYWMAPEVVTRKAYGPKVDIWSLGIMAIEMVEGEPPYLNENPLRALYLIATNGTPELQNPEKLSPIFRDFLNRCLEMDVEKRGSAKELLQHPFLKLAKPLSSLTPLIMAAKEAMKSNR
[1]
  autophosphorylation of PAK I (autoradiography, time course): Stimulation of autophosphorylation upon addition of GST-Cdc42Hs was observed within 5 min
  increased autophosphorylation of PAK I: 0.97 mol/mol
  stimulation of the rate of phosphorylation of H4: 18,261 pmol/min/mg
[2]
  autophosphorylation of PAK I (autoradiography, time course): a slight stimulation of autophosphorylation over the basal level was observed over a 15-min period of incubation
[3]
  autophosphorylation and activity (phosphorylation of H4): had no stimulatory effect on either autophosphorylation or activity
  autophosphorylation of PAK I (autoradiography, time course): GST-RhoA had little effect
[4]
  activity (phosphorylation of H4): 2,154 pmol/min/mg
  autophosphorylation and H4 activity relative to Cdc42Hs(GTPγS): approximately 8-fold lower than those observed with Cdc42Hs(GTPγS)
  stimulation of autophosphorylation: 0.12 mol/mol
